Series [1] concerns the target T1, PP2A catalytic Cα-subunit (free PP2Ac) ( ("mammalian PP2Ac"), UniProt P67775 1-309).
T1 construct: PP2A Cα-subunit (PP2Ac); negligible methylation as purified; also called C-subunit; full-length PP2Ac
Kind of series: pull-down; core enzymes assembled on the maltose resin with the immobilized MBP-tagged truncated A-subunits. The following applies: both partners purified.

For series [2], the target named is PP2A core enzyme with the A-subunit mutant A_R258E ( |  ("mammalian …, UniProt P30153 1-589; P67775 1-309, A_R258E). Kind of series: cell-based or functional assay.
Series [3] has as its target PP2A core enzyme with the A-subunit mutant A_R183E ( |  ("mammalian …, UniProt P30153 1-589; P67775 1-309, A_R183E). Kind of series: cell-based or functional assay.
The target of series [4] is T1, PP2A catalytic Cα-subunit (free PP2Ac). Kind of series: ITC; 200 µM LCMT-1 (pre-loaded with SAH) titrated to 20 µM PP2A; 25°C; 20 mM Tris pH 7.5, 50 mM NaCl, 50 µM MnCl2; VP-ITC. Particulars: both partners purified.
Series [5] deals with the molecule itself. Kind of series: SEC; gel filtration chromatography of wild type and mutant A-subunits. (In gel filtration, larger molecules generally elute earlier.)
For series [6], the target named is T2, PP2A scaffold Aα-subunit (full-length A-subunit) (UniProt P30153 1-589).
T2 construct: PP2A scaffold Aα-subunit, 15 HEAT repeats; called the full-length A-subunit; the methods say that residues 9–54 were retained in all constructs, and the FRET fusion is Aα (9–589); The true N-terminal limit may be residue 9; also called scaffold subunit
The experiment in a line: assembly and purification of the core enzyme; stable PP2A core enzyme assembled from A-subunit and PP2Ac and purified as previously described [17]. Particulars: both partners purified.

B1: A-subunit mutant missing HEAT repeats 2–10 (AΔHR2–10, mini-A) (domain or fragment, UniProt P30153 9-589, looked up)
chain: SLYPIAVLIDELRNEDVQLRLNSIKKLSTIALALGVERTRSELLPFIVELAEDAKWRVRLAIIEYMPLLAGQLGVEYFDEKLNSLCMAWLVDHVYAIREAATSNLKKLVEKFGKEWAHATIIPKVLAMSGDPNYLHRMTTLFCINVLSEVCGQDITTKHMLPTVLRMAGDPVANVRFNVAKSLQKIGPILDNSTLQSEVKPILEKLTQDQDVDVKYFAQEALTVLSLA
notes: the FRET fusion is Aα (9–589); source: E. coli DH5α, MBP-tagged, immobilised on maltose resin
Take B1: in series [1], the binding result was “binds”.

B2: PP2A-specific leucine carboxyl methyltransferase 1 (LCMT-1) (enzyme, human, UniProt Q9UIC8 1-334, looked up)
chain: MATRQRESSITSCCSTSSCDADDEGVRGTCEDASLCKRFAVSIGYWHDPYIQHFVRLSKERKAPEINRGYFARVHGVSQLIKAFLRKTECHCQIVNLGAGMDTTFWRLKDEDLLPSKYFEVDFPMIVTRKLHSIKCKPPLSSPILELHSEDTLQMDGHILDSKRYAVIGADLRDLSELEEKLKKCNMNTQLPTLLIAECVLVYMTPEQSANLLKWAANSFERAMFINYEQVNMGDRFGQIMIENLRRRQCDLAGVETCKSLESQKERLLSNGWETASAVDMMELYNRLPRAEVSRIESLEFLDEMELLEQLMRHYCLCWATKGGNELGLKEITY
notes: human LCMT-1, cloned into pET15b; For ITC it was pre-loaded with SAH (0.5 mM, 10 min, 37°C)
A word on the stoichiometry N: it is a count of units in the complex or per binding partner. For the molecule B2, the “Km of methylation of the PP2A core enzyme by LCMT-1 (3H-SAM), fold increase against the wild-type core enzyme” value in series [2] turned out to be 2 fold. Further, in series [3], the “Km of methylation of the PP2A core enzyme by LCMT-1 (3H-SAM), fold increase against the wild-type core enzyme” value is 1.5 fold. In series [4], the “fold reduction of binding affinity against the core enzyme” value was approximately 4 fold and the “stoichiometry N” value was less than 1.

B3: A-subunit mutant missing HEAT repeats 2–8 (AΔHR2–8) (domain or fragment, UniProt P30153 9-589, looked up)
chain: SLYPIAVLIDELRNEDVQLRLNSIKKLSTIALALGVERTRSELLPFIKELVSDANQHVKSALASVIMGLSPILGKDNTIEHLLPLFLAQLKDECPEVRLNIISNLDCVNEVIGIRQLSQSLLPAIVELAEDAKWRVRLAIIEYMPLLAGQLGVEFFDEKLNSLCMAWLVDHVYAIREAATSNLKKLVEKFGKEWAHATIIPKVLAMSGDPNYLHRMTTLFCINVLSEVCGQDITTKHMLPTVLRMAGDPVANVRFNVAKSLQKIGPILDNSTLQSEVKPILEKLTQDQDVDVKYFAQEALTVLSLA
notes: as for B1
Take B3: in series [1], the binding result is “binds”.

B4: A-subunit mutant A_D61A/E62K/E100A/E101K (natural protein, UniProt P30153 1-589, looked up)
chain: MAAADGDDSLYPIAVLIDELRNEDVQLRLNSIKKLSTIALALGVERTRSELLPFLTDTIYAKDEVLLALAEQLGTFTTLVGGPEYVHCLLPPLESLATVAKTVVRDKAVESLRAISHEHSPSDLEAHFVPLVKRLAGGDWFTSRTSACGLFSVCYPRVSSAVKAELRQYFRNLCSDDTPMVRRAAASKLGEFAKVLELDNVKSEIIPMFSNLASDEQDSVRLLAVEACVNIAQLLPQEDLEALVMPTLRQAAEDKSWRVRYMVADKFTELQKAVGPEITKTDLVPAFQNLMKDCEAEVRAAASHKVKEFCENLSADCRENVIMSQILPCIKELVSDANQHVKSALASVIMGLSPILGKDNTIEHLLPLFLAQLKDECPEVRLNIISNLDCVNEVIGIRQLSQSLLPAIVELAEDAKWRVRLAIIEYMPLLAGQLGVEFFDEKLNSLCMAWLVDHVYAIREAATSNLKKLVEKFGKEWAHATIIPKVLAMSGDPNYLHRMTTLFCINVLSEVCGQDITTKHMLPTVLRMAGDPVANVRFNVAKSLQKIGPILDNSTLQSEVKPILEKLTQDQDVDVKYFAQEALTVLSLA
notes: PP2A scaffold Aα-subunit, multiple mutant D61A/E62K/E100A/E101K; Probably made as the wild-type A-subunit
As to B4, the binding result in series [5] is given as “binds”.

B5: PP2Ac with internal deletion of five residues of the PP2Ac-tail (PP2AcΔ294–298) (enzyme, UniProt P67775 1-309, looked up)
chain: MDEKVFTKELDQWIEQLNECKQLSESQVKSLCEKAKEILTKESNVQEVRCPVTVCGDVHGQFHDLMELFRIGGKSPDTNYLFMGDYVDRGYYSVETVTLLVALKVRYRERITILRGNHESRQITQVYGFYDECLRKYGNANVWKYFTDLFDYLPLTALVDGQIFCLHGGLSPSIDTLDHIRALDRLQEVPHEGPMCDLLWSDPDDRGGWGISPRGAGYTFGQDISETFNHANGLTLVSRAHQLVMEGYNWCHDRNVVTIFSAPNYCYRCGNQAAIMELDDTLKYSFLQFDPAPHVTRRTPDYFL
notes: Probably made as the wild-type Cα-subunit (insect cells, His8 tag cleaved); also called shortened PP2Ac
As for B5, the binding result in series [6] is “binds”.

Values taken from publication PMC3900686, “Mechanisms of the Scaffold Subunit in Facilitating Protein Phosphatase 2A Methylation” (PLoS ONE, 2014).
